According to the supplement of paper PMC10201428:
± gives the standard deviation of the averaged measurements.

Legend:
[1] = system: VchCAST RNA-guided transposition machinery (E. coli BL21(DE3) host, lacZ target); experiment: relative integration efficiency (T-RL orientation) vs wild-type transposon end (log2 (normalized fold change)); transposon end mutated: right end (5 bp flank + 75 bp right end); higher = more efficient transposition
Method in brief: (§1)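 A T7-driven effector plasmid encoding a CRISPR array, tniQ-cas8-cas7-cas6 and tnsA-tnsB-tnsC was co-transformed into E. coli BL21(DE3) together with a pUC57 mini-transposon donor holding barcoded pools of 1549 left-end or 1849 right-end variants. Transformants were plated with 0.1 mM IPTG at 37°C for 18 h. Illumina sequencing of PCR-amplified input plasmids and genomic integration junctions gave barcode abundances, and relative integration efficiency is their output/input fold change, normalised to reference barcodes and log-transformed.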

[2] = system: VchCAST RNA-guided transposition machinery (E. coli BL21(DE3) host, lacZ target); experiment: relative integration efficiency (T-LR orientation) vs wild-type transposon end (log2 (normalized fold change)); transposon end mutated: right end (5 bp flank + 75 bp right end); higher = more efficient transposition
Method in brief: as §1

Row | Sequence | relative integration efficiency (log2) [1] | relative integration efficiency (log2) [2]
1 | ACATTTGTTGATACAACCATAAAAGGATAATTACACCCATCAATTGATAATTATCACACCCAATTTAACTATAACGCTCTGATCATAGTCAGACCAACATTGCTACGACCCGTATTCGCACCGACAC | -2.32 ± 0.29 | 1.06 ± 0.24
2 | ACATTTGTTGATACAACCATAAAAGGATAATTACACCCATCAATTGATAATTATCACACCCCATTTAACTATAACGCTCTGATCATAGTCAGACCAACATTGCTACGACCCGTATTCGCACCGACAC | -2.2 ± 0.15 | 1.27 ± 0.19
3 | ACATTTGTTGATACAACCATAAAAGGATAATTACACCCATCAATTGATAATTATCCCACCCAATTTAACTATAACGCTCTGATCATAGTCAGACCAACATTGCTACGACCCGTATTCGCACCGACAC | -1.89 ± 0.25 | 0.901 ± 0.1
4 | ACATTTGTTGATACAACCATAAAAGGATAATTACACCCATCAATTGATAATTATCCCACCCCATTTAACTATAACGCTCTGATCATAGTCAGACCAACATTGCTACGACCCGTATTCGCACCGACAC | -1.79 ± 0.17 | 0.942 ± 0.22
5 | ACATTTGTTGATACAACCATAAAAGGATAATTACCCCCATAAATTGATAATTATCACACCCAATTTAACTATAACGCTCTGATCATAGTCAGACCAACATTGCTACGACCCGTATTCGCACCGACAC | -1.55 ± 0.26 | 1.37 ± 0.093
6 | ACATTTGTTGATACAACCATAAAAGGATAATTACCCCCATAAATTGATAATTATCACACCCCATTTAACTATAACGCTCTGATCATAGTCAGACCAACATTGCTACGACCCGTATTCGCACCGACAC | -1.46 ± 0.44 | 1.61 ± 0.2
7 | ACATTTGTTGATACAACCATAAAAGGATAATTACCCCCATAAATTGATAATTATCCCACCCAATTTAACTATAACGCTCTGATCATAGTCAGACCAACATTGCTACGACCCGTATTCGCACCGACAC | -0.765 ± 0.32 | 2.19 ± 0.4
8 | ACATTTGTTGATACAACCATAAAAGGATAATTACCCCCATAAATTGATAATTATCCCACCCCATTTAACTATAACGCTCTGATCATAGTCAGACCAACATTGCTACGACCCGTATTCGCACCGACAC | -1.2 ± 0.22 | 1.78 ± 0.039
9 | ACATTTGTTGATACAACCATAAAAGGATAATTACCCCCATCAATTGATAATTATCACACCCAATTTAACTATAACGCTCTGATCATAGTCAGACCAACATTGCTACGACCCGTATTCGCACCGACAC | -2.86 ± 0.32 | -0.104 ± 0.42
10 | ACATTTGTTGATACAACCATAAAAGGATAATTACCCCCATCAATTGATAATTATCACACCCCATTTAACTATAACGCTCTGATCATAGTCAGACCAACATTGCTACGACCCGTATTCGCACCGACAC | -3.19 ± 0.27 | -0.157 ± 0.13
11 | ACATTTGTTGATACAACCATAAAAGGATAATTACCCCCATCAATTGATAATTATCCCACCCAATTTAACTATAACGCTCTGATCATAGTCAGACCAACATTGCTACGACCCGTATTCGCACCGACAC | -0.787 ± 0.53 | 1.91 ± 0.034
12 | ACATTTGTTGATACAACCATAAAAGGATAATTACCCCCATCAATTGATAATTATCCCACCCCATTTAACTATAACGCTCTGATCATAGTCAGACCAACATTGCTACGACCCGTATTCGCACCGACAC | -2.87 ± 0.26 | -0.233 ± 0.32
13 | ACATTTGTTGATACAACCATAAAAGGATAATTCACCCATAAATTGATAATTATCACACCCACATTTAACTATAACGCTCTGATCATAGTCAGACCAACATTGCTACGACCCGTATTCGCACCGACAC | -2.38 ± 0.38 | 0.902 ± 0.15
14 | ACATTTGTTGATACAACCATAAAAGGATAATTCACCCCTAAATTGATAATTATCACACCCACATTTAACTATAACGCTCTGATCATAGTCAGACCAACATTGCTACGACCCGTATTCGCACCGACAC | -4.49 ± 0.25 | -0.705 ± 0.48
15 | ACATTTGTTGATACAACCATAAAAGGATCATTACACCCATAAATTGATAATTATCACACCCAATTTAACTATAACGCTCTGATCATAGTCAGACCAACATTGCTACGACCCGTATTCGCACCGACAC | -2.03 ± 0.18 | 1.34 ± 0.27
16 | ACATTTGTTGATACAACCATAAAAGGATCATTACACCCATAAATTGATAATTATCACACCCCATTTAACTATAACGCTCTGATCATAGTCAGACCAACATTGCTACGACCCGTATTCGCACCGACAC | -2.29 ± 0.32 | 1.27 ± 0.23
17 | ACATTTGTTGATACAACCATAAAAGGATCATTACACCCATAAATTGATAATTATCCCACCCAATTTAACTATAACGCTCTGATCATAGTCAGACCAACATTGCTACGACCCGTATTCGCACCGACAC | -1.69 ± 0.47 | 1.75 ± 0.057
18 | ACATTTGTTGATACAACCATAAAAGGATCATTACACCCATAAATTGATAATTATCCCACCCCATTTAACTATAACGCTCTGATCATAGTCAGACCAACATTGCTACGACCCGTATTCGCACCGACAC | -2.12 ± 0.38 | 1.38 ± 0.021
19 | ACATTTGTTGATACAACCATAAAAGGATCATTACACCCATCAATTGATAATTATCACACCCAATTTAACTATAACGCTCTGATCATAGTCAGACCAACATTGCTACGACCCGTATTCGCACCGACAC | -3.44 ± 0.37 | -0.241 ± 0.022
20 | ACATTTGTTGATACAACCATAAAAGGATCATTACACCCATCAATTGATAATTATCACACCCCATTTAACTATAACGCTCTGATCATAGTCAGACCAACATTGCTACGACCCGTATTCGCACCGACAC | -3.25 ± 0.32 | 0.228 ± 0.13
21 | ACATTTGTTGATACAACCATAAAAGGATCATTACACCCATCAATTGATAATTATCCCACCCAATTTAACTATAACGCTCTGATCATAGTCAGACCAACATTGCTACGACCCGTATTCGCACCGACAC | -2.99 ± 0.16 | 0.119 ± 0.061
22 | ACATTTGTTGATACAACCATAAAAGGATCATTACACCCATCAATTGATAATTATCCCACCCCATTTAACTATAACGCTCTGATCATAGTCAGACCAACATTGCTACGACCCGTATTCGCACCGACAC | -3.29 ± 0.28 | -0.014 ± 0.4
23 | ACATTTGTTGATACAACCATAAAAGGATCATTACCCCCATAAATTGATAATTATCACACCCAATTTAACTATAACGCTCTGATCATAGTCAGACCAACATTGCTACGACCCGTATTCGCACCGACAC | -2.28 ± 0.24 | 0.679 ± 0.16
24 | ACATTTGTTGATACAACCATAAAAGGATCATTACCCCCATAAATTGATAATTATCACACCCCATTTAACTATAACGCTCTGATCATAGTCAGACCAACATTGCTACGACCCGTATTCGCACCGACAC | -2.55 ± 0.35 | 1.16 ± 0.12
25 | ACATTTGTTGATACAACCATAAAAGGATCATTACCCCCATAAATTGATAATTATCCCACCCAATTTAACTATAACGCTCTGATCATAGTCAGACCAACATTGCTACGACCCGTATTCGCACCGACAC | -2.19 ± 0.29 | 0.912 ± 0.11
26 | ACATTTGTTGATACAACCATAAAAGGATCATTACCCCCATAAATTGATAATTATCCCACCCCATTTAACTATAACGCTCTGATCATAGTCAGACCAACATTGCTACGACCCGTATTCGCACCGACAC | -2.25 ± 0.25 | 0.775 ± 0.15
27 | ACATTTGTTGATACAACCATAAAAGGATCATTACCCCCATCAATTGATAATTATCACACCCAATTTAACTATAACGCTCTGATCATAGTCAGACCAACATTGCTACGACCCGTATTCGCACCGACAC | -4.48 ± 0.1 | -1.13 ± 0.29
